Measured values: paper PMC9117644 (Frontiers in Bioengineering and Biotechnology, 2022)

Biological target: T1, human TLR4 ectodomain (S2-derived) (human, UniProt O00206 23-629)
T1 construct: human toll-like receptor 4 ectodomain, UniProtKB O00206, P23-M629, Drosophila codon-optimized; Cloned into pExpreS2-1-CRPA (Addgene #175445): N-terminal BiP signal peptide for secretion, C-terminal thrombin-cleavable Protein A tag; a few residues of the thrombin site probably remain after cleavage; also called toll-like receptor 4; Drosophila-derived TLR4; source: purified (IgG Sepharose, …)
T1 sequence (O00206 23-629): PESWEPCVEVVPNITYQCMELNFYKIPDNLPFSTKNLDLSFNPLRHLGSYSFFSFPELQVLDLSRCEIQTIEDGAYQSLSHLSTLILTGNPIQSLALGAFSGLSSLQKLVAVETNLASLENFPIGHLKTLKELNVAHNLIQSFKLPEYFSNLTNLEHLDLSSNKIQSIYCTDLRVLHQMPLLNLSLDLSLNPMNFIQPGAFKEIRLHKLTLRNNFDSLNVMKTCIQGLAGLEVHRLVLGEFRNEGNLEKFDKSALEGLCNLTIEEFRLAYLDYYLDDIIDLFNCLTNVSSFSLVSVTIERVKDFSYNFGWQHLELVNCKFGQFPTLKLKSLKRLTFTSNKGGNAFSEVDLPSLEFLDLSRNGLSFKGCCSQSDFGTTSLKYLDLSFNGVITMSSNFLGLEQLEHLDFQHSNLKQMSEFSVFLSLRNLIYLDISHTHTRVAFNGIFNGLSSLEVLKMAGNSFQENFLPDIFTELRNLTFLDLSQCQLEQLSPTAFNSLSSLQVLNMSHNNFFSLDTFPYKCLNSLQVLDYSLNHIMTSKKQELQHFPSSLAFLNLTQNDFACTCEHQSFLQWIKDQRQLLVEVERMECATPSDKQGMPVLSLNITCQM
Assay: SEC; analytical SEC, Superdex 200 Increase 30/100 on a Dionex Ultimate 3000 UHPLC; 100-µl injections of 200 µg TLR4, 400 µg MD-2, or 200 µg TLR4 + 400 µg MD-2; A280 traces
Conditions: both partners purified

- binding result: binds
B1: human MD-2 (S2-derived, Protein A tagged) (natural protein, UniProt Q9Y6Y9 19-160, looked up)
chain: QKQYWVCNSSDASISYTYCDKMQYPISINVNPCIELKRSKGLLHIFYIPRRDLKQLYFNLYITVNTMNLPKRKEVICRGSDDDYSFCRALKGETVNTTISFSFKGIKFSKGKYKCVVEAISGSPEEMLFCLEFVILHQPNSN
notes: human lymphocyte antigen 96 (MD-2), UniProtKB Q9Y6Y9, Q19-N160, Drosophila codon-optimized; Cloned into pExpreS2-1-CRPA (Addgene #175445): N-terminal BiP signal peptide for secretion, thrombin site and Protein A at the C-terminus; the tag was routinely left on for stability; also called lymphocyte antigen 96; source: purified (IgG Sepharose, SEC); not shown: Protein A, C-terminal, kept
